In US20260167699A1 (Chugai, published 2026):
Where a chain is given by its changes, count along the chain named. Blank lines part the entries; values can stand above or below the binder they belong to.

Tests used:
Assay in all cases: SPR (Biacore); binding relative to GpH7-A5/GpH7-B3/GpL16-k0 x100;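 note: antibodies captured on a chip surface, soluble FcγR flowed over in HBS-EP+ running buffer at 25 °C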
[1] = target: T1, FcγRIa extracellular domain, C-terminal His tag (human, UniProt P12314 16-292)
T1 construct: extracellular domain; also called 1a

[2] = target: T2, FcγRIIa(R) extracellular domain, C-terminal His tag (human, UniProt P12318 34-217)
T2 construct: extracellular domain; Allotype R131; also called 2aR
T2 sequence: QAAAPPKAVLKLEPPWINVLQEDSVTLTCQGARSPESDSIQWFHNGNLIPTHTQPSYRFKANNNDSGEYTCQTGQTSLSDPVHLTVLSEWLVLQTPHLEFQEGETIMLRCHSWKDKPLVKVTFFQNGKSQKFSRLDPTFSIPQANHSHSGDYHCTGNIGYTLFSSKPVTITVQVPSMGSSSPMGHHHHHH

[3] = target: T3, FcγRIIa(H) extracellular domain, C-terminal His tag (human, UniProt P12318 34-217)
T3 construct: extracellular domain; Allotype H131; also called 2aH
T3 sequence: T2 sequence with R134H

[4] = target: T4, FcγRIIb extracellular domain, C-terminal His tag (human, UniProt P31994 43-217)
T4 construct: extracellular domain; also called 2b
T4 sequence: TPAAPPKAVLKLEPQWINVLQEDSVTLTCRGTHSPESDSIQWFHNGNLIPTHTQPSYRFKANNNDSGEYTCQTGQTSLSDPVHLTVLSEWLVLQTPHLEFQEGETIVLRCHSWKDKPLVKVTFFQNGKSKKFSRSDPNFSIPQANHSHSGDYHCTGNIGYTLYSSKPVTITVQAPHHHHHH

[5] = target: T5, FcγRIIIa extracellular domain, C-terminal His tag (human, UniProt P08637 17-208)
T5 construct: extracellular domain; also called 3a
T5 sequence (P08637 other isoform, or with tags, fused parts or gaps): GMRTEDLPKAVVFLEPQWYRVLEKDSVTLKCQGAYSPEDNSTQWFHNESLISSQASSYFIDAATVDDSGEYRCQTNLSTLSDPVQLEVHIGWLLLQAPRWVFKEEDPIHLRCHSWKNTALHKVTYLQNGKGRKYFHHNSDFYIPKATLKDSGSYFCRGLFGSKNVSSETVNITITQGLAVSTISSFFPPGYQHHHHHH

T1 sequence (P12314 other isoform, or with tags, fused parts or gaps): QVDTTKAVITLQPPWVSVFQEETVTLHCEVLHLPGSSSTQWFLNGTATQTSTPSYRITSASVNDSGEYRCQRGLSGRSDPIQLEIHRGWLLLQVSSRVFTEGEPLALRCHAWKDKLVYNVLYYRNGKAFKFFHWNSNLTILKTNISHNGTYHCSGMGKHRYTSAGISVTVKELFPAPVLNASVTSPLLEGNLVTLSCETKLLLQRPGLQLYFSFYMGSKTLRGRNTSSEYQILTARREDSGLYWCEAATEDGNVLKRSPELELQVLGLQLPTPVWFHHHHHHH

He/Con 1a [1]: 109%
He/Con 2aR [2]: 115%
He/Con 2aH [3]: 102%
He/Con 2b [4]: 133%
He/Con 3a [5]: 106%
B3: GpH7-A5/GpH7-B3 variant K326_16H/GpL16-k0 (antibody, human IgG1, kappa)
heavy 1: not shown
heavy 2: not shown
light: DIVMTQSPLSLPVTPGEPASISCQASESLVHSNRNTYLHWYLQKPGQSPQLLIYKVSNRFSGVPDRFSGSGSGTDFTLKISRVEAEDVGVYYCSQNTHVPPTFGQGTKVEIERTVAAPSVFIFPPSDEQLKSGTASVVCLLNNFYPREAKVQWKVDNALQSGNSQESVTEQDSKDSTYSLSSTLTLSKADYEKHKVYACEVTHQGLSSPVTKSFNRGEC
notes: He Ab: anti-glypican 3 IgG1 heterodimer, only the GpH7-B3 chain mutated; position in EU numbering; also called He Ab

He/Con 1a [1]: 104%
He/Con 2aR [2]: 114%
He/Con 2aH [3]: 85.4%
He/Con 2b [4]: 132%
He/Con 3a [5]: 66.9%
B5: GpH7-A5/GpH7-B3 variant P331_03V/GpL16-k0 (antibody, human IgG1, kappa)
heavy 1: not shown
heavy 2: not shown
light: B3 light
notes: as for B3

He/Con 1a [1]: 109%
He/Con 2aR [2]: 142%
He/Con 2aH [3]: 106%
He/Con 2b [4]: 224%
He/Con 3a [5]: 138%
B8: GpH7-A5/GpH7-B3 variant K326_10E/GpL16-k0 (antibody, human IgG1, kappa)
heavy 1: not shown
heavy 2: not shown
light: B3 light
notes: as for B3

He/Con 1a [1]: 105%
He/Con 2aR [2]: 98.6%
He/Con 2aH [3]: 105%
He/Con 2b [4]: 100%
He/Con 3a [5]: 101%
B11: GpH7-A5/GpH7-B3 variant K326_12R/GpL16-k0 (antibody, human IgG1, kappa)
heavy 1: not shown
heavy 2: not shown
light: B3 light
notes: as for B3

He/Con 1a [1]: 104%
He/Con 2aR [2]: 174%
He/Con 2aH [3]: 106%
He/Con 2b [4]: 240%
He/Con 3a [5]: 70.2%
B13: GpH7-A5/GpH7-B3 variant L328_15Y/GpL16-k0 (antibody, human IgG1, kappa)
heavy 1: not shown
heavy 2: not shown
light: B3 light
notes: as for B3

He/Con 1a [1]: 102%
He/Con 2aR [2]: 137%
He/Con 2aH [3]: 83%
He/Con 2b [4]: 198%
He/Con 3a [5]: 71.9%
B14: GpH7-A5/GpH7-B3 variant N325_13S/GpL16-k0 (antibody, human IgG1, kappa)
heavy 1: not shown
heavy 2: not shown
light: B3 light
notes: as for B3

He/Con 1a [1]: 99.9%
He/Con 2aR [2]: 85.3%
He/Con 2aH [3]: 50%
He/Con 2b [4]: 78.5%
He/Con 3a [5]: 68%
B15: GpH7-A5/GpH7-B3 variant N325_16H/GpL16-k0 (antibody, human IgG1, kappa)
heavy 1: not shown
heavy 2: not shown
light: B3 light
notes: as for B3

He/Con 1a [1]: 109%
He/Con 2aR [2]: 128%
He/Con 2aH [3]: 119%
He/Con 2b [4]: 168%
He/Con 3a [5]: 140%
B16: GpH7-A5/GpH7-B3 variant K326_14T/GpL16-k0 (antibody, human IgG1, kappa)
heavy 1: not shown
heavy 2: not shown
light: B3 light
notes: as for B3

He/Con 1a [1]: 106%
He/Con 2aR [2]: 105%
He/Con 2aH [3]: 88.1%
He/Con 2b [4]: 113%
He/Con 3a [5]: 68.4%
B18: GpH7-A5/GpH7-B3 variant P331_06M/GpL16-k0 (antibody, human IgG1, kappa)
heavy 1: not shown
heavy 2: not shown
light: B3 light
notes: as for B3

He/Con 1a [1]: 101%
He/Con 2aR [2]: 148%
He/Con 2aH [3]: 122%
He/Con 2b [4]: 176%
He/Con 3a [5]: 80.8%
B19: GpH7-A5/GpH7-B3 variant L328_06M/GpL16-k0 (antibody, human IgG1, kappa)
heavy 1: not shown
heavy 2: not shown
light: B3 light
notes: as for B3

He/Con 1a [1]: 106%
He/Con 2aR [2]: 119%
He/Con 2aH [3]: 110%
He/Con 2b [4]: 139%
He/Con 3a [5]: 118%
B20: GpH7-A5/GpH7-B3 variant K326_13S/GpL16-k0 (antibody, human IgG1, kappa)
heavy 1: not shown
heavy 2: not shown
light: B3 light
notes: as for B3

He/Con 1a [1]: 103%
He/Con 2aR [2]: 153%
He/Con 2aH [3]: 138%
He/Con 2b [4]: 176%
He/Con 3a [5]: 77.4%
B22: GpH7-A5/GpH7-B3 variant L328_14T/GpL16-k0 (antibody, human IgG1, kappa)
heavy 1: not shown
heavy 2: not shown
light: B3 light
notes: as for B3

He/Con 1a [1]: 101%
He/Con 2aR [2]: 150%
He/Con 2aH [3]: 146%
He/Con 2b [4]: 186%
He/Con 3a [5]: 73.7%
B23: GpH7-A5/GpH7-B3 variant L328_13S/GpL16-k0 (antibody, human IgG1, kappa)
heavy 1: not shown
heavy 2: not shown
light: B3 light
notes: as for B3

He/Con 1a [1]: 104%
He/Con 2aR [2]: 115%
He/Con 2aH [3]: 103%
He/Con 2b [4]: 131%
He/Con 3a [5]: 83.4%
B24: GpH7-A5/GpH7-B3 variant L328_19Q/GpL16-k0 (antibody, human IgG1, kappa)
heavy 1: not shown
heavy 2: not shown
light: B3 light
notes: as for B3

He/Con 1a [1]: 105%
He/Con 2aR [2]: 105%
He/Con 2aH [3]: 93.9%
He/Con 2b [4]: 110%
He/Con 3a [5]: 82.5%
B26: GpH7-A5/GpH7-B3 variant P331_02A/GpL16-k0 (antibody, human IgG1, kappa)
heavy 1: not shown
heavy 2: not shown
light: B3 light
notes: as for B3

He/Con 1a [1]: 105%
He/Con 2aR [2]: 111%
He/Con 2aH [3]: 55.3%
He/Con 2b [4]: 139%
He/Con 3a [5]: 53%
B27: GpH7-A5/GpH7-B3 variant N325_09D/GpL16-k0 (antibody, human IgG1, kappa)
heavy 1: not shown
heavy 2: not shown
light: B3 light
notes: as for B3

He/Con 1a [1]: 102%
He/Con 2aR [2]: 160%
He/Con 2aH [3]: 111%
He/Con 2b [4]: 200%
He/Con 3a [5]: 86.4%
B28: GpH7-A5/GpH7-B3 variant L328_07I/GpL16-k0 (antibody, human IgG1, kappa)
heavy 1: not shown
heavy 2: not shown
light: B3 light
notes: as for B3

Continued, binder first:

B1: GpH7-A5/GpH7-B3 variant K326_08L/GpL16-k0 (antibody, human IgG1, kappa)
heavy 1: not shown
heavy 2: not shown
light: B3 light
notes: as for B3
He/Con 1a [1]: 105%
He/Con 2aR [2]: 131%
He/Con 2aH [3]: 96.5%
He/Con 2b [4]: 198%
He/Con 3a [5]: 126%

B2: GpH7-A5/GpH7-B3 variant L328_03V/GpL16-k0 (antibody, human IgG1, kappa)
heavy 1: not shown
heavy 2: not shown
light: B3 light
notes: as for B3
He/Con 1a [1]: 103%
He/Con 2aR [2]: 150%
He/Con 2aH [3]: 116%
He/Con 2b [4]: 157%
He/Con 3a [5]: 80.9%

B4: GpH7-A5/GpH7-B3 variant K326_09D/GpL16-k0 (antibody, human IgG1, kappa)
heavy 1: not shown
heavy 2: not shown
light: B3 light
notes: as for B3
He/Con 1a [1]: 109%
He/Con 2aR [2]: 142%
He/Con 2aH [3]: 115%
He/Con 2b [4]: 216%
He/Con 3a [5]: 148%

B6: GpH7-A5/GpH7-B3 variant L328_02A/GpL16-k0 (antibody, human IgG1, kappa)
heavy 1: not shown
heavy 2: not shown
light: B3 light
notes: as for B3
He/Con 1a [1]: 101%
He/Con 2aR [2]: 150%
He/Con 2aH [3]: 154%
He/Con 2b [4]: 180%
He/Con 3a [5]: 81.3%

B7: GpH7-A5/GpH7-B3 variant P329_10E/GpL16-k0 (antibody, human IgG1, kappa)
heavy 1: not shown
heavy 2: not shown
light: B3 light
notes: as for B3
He/Con 1a [1]: 81.4%
He/Con 2aR [2]: 72.7%
He/Con 2aH [3]: 57.6%
He/Con 2b [4]: 59.5%
He/Con 3a [5]: 52.7%

B9: GpH7-A5/GpH7-B3 variant L328_04F/GpL16-k0 (antibody, human IgG1, kappa)
heavy 1: not shown
heavy 2: not shown
light: B3 light
notes: as for B3
He/Con 1a [1]: 100%
He/Con 2aR [2]: 177%
He/Con 2aH [3]: 84.9%
He/Con 2b [4]: 273%
He/Con 3a [5]: 81.5%

B10: GpH7-A5/GpH7-B3 variant K326_15Y/GpL16-k0 (antibody, human IgG1, kappa)
heavy 1: not shown
heavy 2: not shown
light: B3 light
notes: as for B3
He/Con 1a [1]: 111%
He/Con 2aR [2]: 131%
He/Con 2aH [3]: 102%
He/Con 2b [4]: 179%
He/Con 3a [5]: 124%

B12: GpH7-A5/GpH7-B3 variant P329_09D/GpL16-k0 (antibody, human IgG1, kappa)
heavy 1: not shown
heavy 2: not shown
light: B3 light
notes: as for B3
He/Con 1a [1]: 80.1%
He/Con 2aR [2]: 76%
He/Con 2aH [3]: 57.1%
He/Con 2b [4]: 60.4%
He/Con 3a [5]: 52.5%

B17: GpH7-A5/GpH7-B3 variant L328_16H/GpL16-k0 (antibody, human IgG1, kappa)
heavy 1: not shown
heavy 2: not shown
light: B3 light
notes: as for B3
He/Con 1a [1]: 98.5%
He/Con 2aR [2]: 106%
He/Con 2aH [3]: 84.5%
He/Con 2b [4]: 100%
He/Con 3a [5]: 55.9%

B21: GpH7-A5/GpH7-B3 variant L328_18N/GpL16-k0 (antibody, human IgG1, kappa)
heavy 1: not shown
heavy 2: not shown
light: B3 light
notes: as for B3
He/Con 1a [1]: 101%
He/Con 2aR [2]: 76.4%
He/Con 2aH [3]: 80.6%
He/Con 2b [4]: 101%
He/Con 3a [5]: 51.1%

B25: GpH7-A5/GpH7-B3 variant P331_04F/GpL16-k0 (antibody, human IgG1, kappa)
heavy 1: not shown
heavy 2: not shown
light: B3 light
notes: as for B3
He/Con 1a [1]: 108%
He/Con 2aR [2]: 110%
He/Con 2aH [3]: 87.7%
He/Con 2b [4]: 122%
He/Con 3a [5]: 70.7%

B29: GpH7-A5/GpH7-B3 variant K326_19Q/GpL16-k0 (antibody, human IgG1, kappa)
heavy 1: not shown
heavy 2: not shown
light: B3 light
notes: as for B3
He/Con 1a [1]: 108%
He/Con 2aR [2]: 124%
He/Con 2aH [3]: 106%
He/Con 2b [4]: 156%
He/Con 3a [5]: 117%

B30: GpH7-A5/GpH7-B3 variant K326_18N/GpL16-k0 (antibody, human IgG1, kappa)
heavy 1: not shown
heavy 2: not shown
light: B3 light
notes: as for B3
He/Con 1a [1]: 110%
He/Con 2aR [2]: 110%
He/Con 2aH [3]: 113%
He/Con 2b [4]: 118%
He/Con 3a [5]: 134%
